The values that follow are results of earlier work, collected in patent EP0759087B1, “COMPOSITIONS AND METHODS FOR TARGETING GENE DELIVERY VEHICLES” (CHIRON CORPORATION, priority 1994, dated 1995).

Where no end group is shown, it is not given here.

Broadly, the Kd is the concentration at which binding is half-saturated.

This series addresses receptor on melanocytes (Homo sapiens, UniProt Q01726). The note with it: no source given, read-out: receptor affinity (KD).

receptor on melanocytes, sequence (Q01726 whole entry): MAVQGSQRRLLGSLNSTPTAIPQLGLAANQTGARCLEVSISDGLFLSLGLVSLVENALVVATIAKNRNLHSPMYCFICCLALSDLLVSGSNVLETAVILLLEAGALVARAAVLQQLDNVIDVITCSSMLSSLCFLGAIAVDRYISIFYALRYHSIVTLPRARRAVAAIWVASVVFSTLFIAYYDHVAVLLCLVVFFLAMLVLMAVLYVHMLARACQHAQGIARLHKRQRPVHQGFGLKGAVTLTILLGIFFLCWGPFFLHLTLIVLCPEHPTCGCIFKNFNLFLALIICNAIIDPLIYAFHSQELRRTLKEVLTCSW

As for “S-Y-S-M-E-H-F-R-W-G-L-P-V-NH2 (SYSMEHFRWGLPV-NH2) [MSH, 13 amino acid peptide that is specifically recognized by a receptor on melanocytes]”, the Kd is ~0.01 µM.
